The record followed here is article PMC4210639.

The target in this assay is FLRT^LRR (SPR test of FLRT^LRR-FLRT^LRR binding). Description: SPR. In general terms: Surface plasmon resonance follows binding to a sensor surface in real time, without labels.

By Kd is commonly meant the free concentration of one partner at which half of the binding sites on the other are occupied at equilibrium, for simple one-to-one binding. A high value points to a looser complex. For “FLRT^LRR (SPR test of FLRT^LRR-FLRT^LRR binding)”, the Kd was > 100 µM.
